Test results published in patent US20230035798A1 (CAPELLA BIOSCIENCE, published 2023).

What was measured:
[1] = target: T1, human LIGHT (TNFSF14), full length, membrane-bound (214E allele) (human, UniProt O43557 1-240); experiment: flow cytometry, EL4-LIGHT cells
T1 construct: also called membrane LIGHT; human membrane LIGHT
Experimental: The EC50 of the 7 mAbs were calculated from binding to EL4-LIGHT cells (Table 7) which represents a more accurate comparison of the EC50's than utilising transiently transfected LIGHT cells. […] Non-linear regression analysis was performed to determine the functional binding affinity measurement or EC50 for each mAb. A range of functional affinities was observed.

membrane LIGHT S192A = target: T2, membrane LIGHT S192A (human, UniProt O43557 1-240); experiment: flow cytometry, transfected HEK293FF, mAb at EC50
T2 chain: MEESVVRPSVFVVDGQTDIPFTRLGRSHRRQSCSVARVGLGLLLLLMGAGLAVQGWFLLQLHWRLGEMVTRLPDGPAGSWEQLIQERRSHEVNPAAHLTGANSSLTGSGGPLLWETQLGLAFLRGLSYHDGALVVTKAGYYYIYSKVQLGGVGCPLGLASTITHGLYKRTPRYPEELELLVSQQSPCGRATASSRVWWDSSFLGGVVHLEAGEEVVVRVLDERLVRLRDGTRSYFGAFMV
Experimental: (§1) The day of transfection the cells were seeded in a 24-well plate at 0.6×10⁶ cells/well. Lipofectamine 2000 (ThermoFisher scientific), 3 μl, was mixed with 50 μl OptiMEM medium (GIBCO) and then added to 50 μl Opti-MEM medium containing 3 ug plasmid DNA and incubated for 20 min at RT to form DNA-Lipofectamine 2000 complexes which were then added to the HEK293FF cells and incubated at 37° C., 5% CO₂ for 24 hours. For each construct, in duplicate, 0.60×10⁶ cells/well were used in a 96 well round bottom plate. Cells were centrifuged for 3 minutes at 300×g at 4° C., the supernatant discarded and the cells washed with 150 μl FACS buffer (0.5% FBS in phosphate buffered saline). This process was repeated 3 times. […] The wells were washed 3 times as above and 50 μl/well of goat anti-human IgG FITC (1:1500 dilution in FACS buffer, SIGMA F9512-2ML) or goat anti-mouse APC (1/500 dilution in FACS buffer, BDBioscience 550826), as appropriate, was added to the wells and incubated for 30 min at 4° C. protected from the light, with shaking. The cells were then washed as above, resuspended in 100 μl of FACS buffer and binding of the antibodies to the constructs was measured using flow cytometry and a total of 10,000 cells were acquired for each sample. Controls of buffer and secondary antibody only as well as HEK293FF non transfected cells were also used.

membrane LIGHT R195A = target: T3, membrane LIGHT R195A (human, UniProt O43557 1-240); experiment: flow cytometry, transfected HEK293FF, mAb at EC50
T3 chain: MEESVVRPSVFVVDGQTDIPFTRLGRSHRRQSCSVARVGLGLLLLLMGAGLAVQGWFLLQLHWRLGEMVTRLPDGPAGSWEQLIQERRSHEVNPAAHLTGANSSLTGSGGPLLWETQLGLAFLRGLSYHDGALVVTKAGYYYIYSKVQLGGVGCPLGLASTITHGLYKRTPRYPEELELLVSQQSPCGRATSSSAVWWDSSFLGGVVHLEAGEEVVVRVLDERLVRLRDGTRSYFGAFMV
Experimental: as §1

membrane LIGHT V196A = target: T4, membrane LIGHT V196A (human, UniProt O43557 1-240); experiment: flow cytometry, transfected HEK293FF, mAb at EC50
T4 chain: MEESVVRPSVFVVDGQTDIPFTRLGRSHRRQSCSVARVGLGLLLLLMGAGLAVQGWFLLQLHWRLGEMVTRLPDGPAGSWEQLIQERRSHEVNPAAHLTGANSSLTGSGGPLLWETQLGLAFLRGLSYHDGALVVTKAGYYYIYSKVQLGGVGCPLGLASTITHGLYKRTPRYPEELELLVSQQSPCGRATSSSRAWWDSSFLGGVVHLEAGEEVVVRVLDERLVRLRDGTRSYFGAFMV
Experimental: as §1

membrane LIGHT W198A = target: T5, membrane LIGHT W198A (human, UniProt O43557 1-240); experiment: flow cytometry, transfected HEK293FF, mAb at EC50
T5 chain: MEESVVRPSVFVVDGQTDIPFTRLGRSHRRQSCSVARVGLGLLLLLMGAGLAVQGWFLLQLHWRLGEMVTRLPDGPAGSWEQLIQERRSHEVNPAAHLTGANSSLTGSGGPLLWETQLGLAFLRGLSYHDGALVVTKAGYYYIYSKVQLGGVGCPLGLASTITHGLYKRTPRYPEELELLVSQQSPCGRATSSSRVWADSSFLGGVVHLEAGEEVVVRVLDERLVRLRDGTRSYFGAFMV
Experimental: as §1

[2] = target: T1, human LIGHT (TNFSF14), full length, …; experiment: competition with biotin-LTβR:Fc, HEK293FF LIGHT cells, flow cytometry
Experimental: The ability of the 7 chimeric mAbs to block biotin-HVEM:Fc and biotin-LTβR:Fc fusion proteins to cell surface expressed LIGHT using a flow cytometric based assay is shown in FIGS. 1A and 1B respectively. In these experiments, graded amounts of each antibody were added to the HEK293FF cells transiently transfected with LIGHT with a 50% saturating amount of the receptor fusion protein. As shown, each of the antibodies blocked either receptor fusion protein from binding LIGHT, in contrast to the irrelevant antibody control which had no effect on either Fc-receptor fusion protein binding. In each experiment, all antibodies blocked receptor binding in a dose dependent manner enabling analysis by non-linear regression to determine the IC50 dose as shown in Table 11A.

T1 sequence (O43557 whole entry K214E): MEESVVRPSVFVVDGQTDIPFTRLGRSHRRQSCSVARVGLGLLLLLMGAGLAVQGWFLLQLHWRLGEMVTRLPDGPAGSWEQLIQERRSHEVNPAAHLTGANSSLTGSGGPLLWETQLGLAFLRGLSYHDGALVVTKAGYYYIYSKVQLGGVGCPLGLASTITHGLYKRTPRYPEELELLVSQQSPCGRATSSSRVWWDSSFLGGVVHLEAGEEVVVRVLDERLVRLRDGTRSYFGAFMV

B1: 2E08 (antibody, human IgG4, V domains shown)
VH: QVQMKESGAELVRPGVSVKISCKGSGYTFTDYAIHWVKQSHAKTLEWIGVISTYYGDASYNQKFKGKATMTVDKSSSTAYMELARLTSDDSAIYYCARSRGEYGNYDAMDYWGQGTSVTVSS
VL: DIVLTQSPASLAVSLGQRATISCKASQSVDYDGDSYMNWYQQKPGQPPKLLIYAASNLESGIPARFSGSGSGTDFTLNIHPVEEEDAATYYCQQSNEDPLTFGAGTKLELK
notes: chimeric human IgG4 (S-to-P, L-to-E at 248), human CL; also called Parental 2E08
EC50 [1]: 1.8 nM | binding, % of WT (membrane LIGHT S192A): 122% | binding, % of WT (membrane LIGHT R195A): 43% | binding, % of WT (membrane LIGHT V196A): 99% | binding, % of WT (membrane LIGHT W198A): 83% | IC50 [2]: 14.4 nM

B2: 3A07 (antibody, human IgG4, V domains shown)
VH: QVQLQQSGAELVRPGAPVTLSCKASDYTFTDSEIHWVKQTPVHGLEWIGEIDPETGGTAYNQKFKGKATLTADKSSSTAYMELRSLTSEDSAVYYCSRETDYFFDYWGQGTTLTVSS
VL: ENVLTQSPAIMSASPGEKVTMTCSASSSVSYMYWYQQRPGSSPRLLIYDTSNLASGVPVRFSGSGSGTSYSLTISRMEAEDAATYYCQQWSSYPLTFGSGTKLEIK
notes: chimeric human IgG4 (S-to-P, L-to-E at 248), human CL; also called Parental 3A07
EC50 [1]: 0.14 nM | binding, % of WT (membrane LIGHT S192A): 41% | binding, % of WT (membrane LIGHT R195A): 15% | binding, % of WT (membrane LIGHT V196A): 77% | binding, % of WT (membrane LIGHT W198A): 82% | IC50 [2]: 1.4 nM

B3: 3C10 (antibody, human IgG4, V domains shown)
VH: EVQLQQSGAELVRPGASVTLSCKASDYTFTDSEIHWVKQTPVHGLEWIGEIDPETGGTAYNQKFKGKATLTADKSSSTAYMELRSLTSEDSAVYYCSRETDYFFDYWGQGTTLTVSS
VL: DVVMTQTPAIMSASPGEKVTMTCSASSSVSYMYWYQQKPGSSPRLLIYDTSNLASGVPVRFSGSGSGTSYSLTISRMEAEDAATYYCQQWSSYPLTFGAGTKLELK
notes: chimeric human IgG4 (S-to-P, L-to-E at 248), human CL; also called Parental 3C10
EC50 [1]: 0.16 nM | binding, % of WT (membrane LIGHT S192A): 35% | binding, % of WT (membrane LIGHT R195A): 6% | binding, % of WT (membrane LIGHT V196A): 78% | binding, % of WT (membrane LIGHT W198A): 86% | IC50 [2]: 1.9 nM

B4: 2B11 (antibody, human IgG4, V domains shown)
VH: EVQLVESGAELVRPGVSVKISCKGSGYTFTDYAIHWVKQSHAKSLEWIGVISTYYGDASYNQKFKGKATMTVDKSSSTAYMELARLTSEDSAIYYCARSRGEYGNYDAMDYWGQGTSVTVSS
VL: DIVLTQSPASLAVSLGQRATISCRASESVDSYGNSFMHWYQQKPGQPPKLLIYRASNLESGIPARFSGSGSRTDFTLTINPVEADDVATYYCQQSNEDPYTFGGGTKLEIK
notes: chimeric human IgG4 (S-to-P, L-to-E at 248), human CL; also called Parental 2B11
EC50 [1]: 0.3 nM | binding, % of WT (membrane LIGHT S192A): 96% | binding, % of WT (membrane LIGHT R195A): 78% | binding, % of WT (membrane LIGHT V196A): 73% | binding, % of WT (membrane LIGHT W198A): 77% | IC50 [2]: 2.1 nM

B5: 3B04 (antibody, human IgG4, V domains shown)
VH: QVQLQQPGAELVRPGASVTLSCKASGYTFTDYEMHWVKQTPVHGLEWIGEIDPETGDTAYSQKFKGKATLTADKSSSTAYMEFRSLTSEDSAVYYCSRETDYFFDYWGQGTTLTVSS
VL: DIQMTQTPASLSASVGETVTITCGASENIYGALNWYQRKQGKSPQLLIYGATNLADGMSSRFSGSGSGRQYSLKISSLHPDDFATYYCQNVLTTPWTFGGGTKLEIKR
notes: chimeric: mouse variable domains on human IgG4 HC (S-to-P and L-to-E at 248) and human CL; also called Parental 3B04; 3B04 chimeric
EC50 [1]: 0.15 nM | binding, % of WT (membrane LIGHT S192A): 88% | binding, % of WT (membrane LIGHT R195A): 1% | binding, % of WT (membrane LIGHT V196A): 80% | binding, % of WT (membrane LIGHT W198A): 81% | IC50 [2]: 1.1 nM

B6: 3D12 (antibody, human IgG4, V domains shown)
VH: QVQLQQPGAELVRPGASVTLSCKASDYTFTDSEIHWVKQTPVHGLEWIGEIDPETGGTAYNQKFKGKATLTADKSSSTAYMELRSLTSEDSAVYYCSRETDYFFDYWGQGTTLTVSS
VL: DIQMTQSPASLSASVGETVTITCGASENIYGALNWYQRKQGKSPQLLIYGATNLADGMSSRFSGSGSGRQYSLKISSLHPDDVATYYCQNVLSTPWTFGGGTKLEIKR
notes: chimeric: mouse variable domains on human IgG4 HC (S-to-P and L-to-E at 248) and human CL; also called Parental 3D12; 3D12 chimeric
EC50 [1]: 0.2 nM | binding, % of WT (membrane LIGHT S192A): 84% | binding, % of WT (membrane LIGHT R195A): 25% | binding, % of WT (membrane LIGHT V196A): 70% | binding, % of WT (membrane LIGHT W198A): 83% | IC50 [2]: 0.6 nM

B7: 3E09 (antibody, V domains shown)
VH: EVQLVESGGGLVKPGGSLKLSCEASGFTFSDYYMYWVRQTPEKRLEWVAAIGDGGIYTYYADTVKGRFTISRDNAKNILYLQMSSLKSNDTAMYYCARGTGDGFAYWGQGTLVTVS
VL: DIVLTQSPASLAVSLGQRATISCRASESVDSYGNSFMHWYQQKPGQPPKLLIYLASNLESGVPARFSGSGSRTDFTLTIDPVEADDAATYYCQQNNEDPYTFGGGTKLEIK
notes: chimeric human IgG4 (S-to-P, L-to-E at 248), human CL; also called Parental 3E09
EC50 [1]: 8.1 nM | binding, % of WT (membrane LIGHT S192A): 50% | binding, % of WT (membrane LIGHT R195A): 1% | binding, % of WT (membrane LIGHT V196A): 34% | binding, % of WT (membrane LIGHT W198A): 48% | IC50 [2]: 12 nM
